Measurements published in patent US6348311B1, “ATM kinase modulation for screening and therapies” (St. Jude Childre's Research Hospital, priority 1999, dated 2002).
Where no end group is shown, it is not given here.

B1: GST-p95 (327-391): larger GST-p95 protein fragment, p95 amino acids 327-391, containing serine 343 (protein)
chain: GHPSTGLKTTTPGPSLSQGVSVDEKLMPSAPVNTTTYVADTESEQADTWDLSERPKEIKVSKMEQ
modifications: also: GST fusion
B2: PhasI/4E-BP1: full-length 4E-BP1 protein, translation regulator in insulin signaling (protein)
chain: SAGSSCSQTPSRAIPTRRVALGDGVQLPPGDYSTTPGGTLFSTTPGGTRIIYDRKFLMECRNSPVAKTPPKDLPTIPGVTSPTSDEPPMQASQSHLHSSPEDKRAGGEESQFEMDI
B3: GST-WRN (1099-1198): GST-linked WRN fragment, amino acids 1099-1198 (protein)
chain: STEKKSNLEKLYSYKPCDKISSGSNISKKSIMVQSPEKAYSSSQPVISAQEQETQIVLYGKLVEARQKHANKMDVPPAILATNKILVDMAKMRPTTVENV
modifications: left off: a dimerising Fc or GST

What was measured:
Type in all cases: biochemical
ATM kinase = biological target: T1, ATM kinase (Homo sapiens, UniProt Q13315); test: In vitro kinase assay, ATM with GST-peptide / GST-fusion substrates; details: for phosphorylation of GST-peptide substrate by ATM (in words): GST-conjugated 14 amino acid peptides; for Relative Phosphorylation (%) ATM: GST-peptide substrate, relative to the p53ser15 site; for phosphorylation by ATM in vitro (in words): larger GST-fusion fragments or full-length proteins as substrates;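 as to all read-outs here: immunoprecipitated ATM incubated with [γ-32P]ATP at 30 °C for 20 min, substrates resolved by SDS-PAGE and radiolabel incorporation quantified by PhosphorImager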
T1 construct: The full-length cDNA encoding NH2-terminal, FLAG-tagged wild-type ATM; made in house; host or cells: 293T cells, transient transfection with pcDNA-FLAG-ATMwt, anti-FLAG M2 immunoprecipitate on beads

DNA-PK = DNA-PK (Homo sapiens, UniProt P78527); test: In vitro kinase assay, purified DNA-PK with GST-peptide / GST-fusion substrates; details: for Relative Phosphorylation (%) DNA-PK: GST-peptide substrate, relative to the p53ser15 site
Protocol: (§1) FIGS. 1A, 1B, and 1C. Phosphorylation of GST-p53 mutant peptides (amino acids 9-21) by ATM, ATR, and DNA-PK in vitro. In vitro kinase assays with immunoprecipitated, transfected flag-tagged ATM (A) or ATR (B) or purified DNA-PK (C) were performed with GST-p53 peptides containing the amino acid substitutions indicated. The amount of 32P-labeled GST-peptides was quantitated with a PhosphorImager and was normalized for each of the kinases to the level of phosphorylation of wild-type GST-p53.
(§2) FIGS. 2A, 2B, and 2C. Phosphorylation of candidate targets of by ATM, ATR and DNA-PK in vitro. GST-peptides containing the putative target sequences were used as substrates for the kinase assay.
(§3) Plasmids and GST-fusion protein production. For GST fusion peptide expression vectors, complementary oligonucleotides encoding desired peptides (14 amino acids) were cloned into the BamHI/SmaI site of pGEX-2T (Pharmacia). The constructs were confirmed by restriction enzyme digests and DNA sequencing. To construct the larger GST-p95 (327-391) protein fragment, p95 DNA encoding amino acids 327-391 was amplified by PCR with Pfu polymerase using the following primers: 5′ sense,
In vitro kinase assays and immunoprecipitation. […] Cleared supernatants were immunoprecipitated with anti-Flag M2 antibody and protein A/G agarose, the beads were washed with TGN buffer followed by TGN buffer plus 0.5 M LiCl, and two washes with kinase buffer [20 mM HEPES (pH 7.5), 50 mM NaCl, 10 mM MgCl2, 1 mM dithiothreitol (DTT) and 10 mM MnCl2]. […] ATP and […] of GST-fusion substrate (GST-p53:1-101), in varying concentration of Mn^2+. The kinase reaction was conducted at 30° C. for 20 min and stopped by the addition of SDS-PAGE loading buffer. Proteins were separated on SDS-polyacrylamide gel electrophoresis (SDS-PAGE) and transferred to nitrocellulose. Radiolabeled proteins were visualized and quantitated on a Phosphorimager (Molecular Dynamics). Use of equivalent amounts of flag-tagged ATM or ATR in the different lanes was confirmed by immunoblotting with anti-flag antibody. In some reactions, either supercoiled DNA (pBluescript II KS, Stratagene) or linearized DNA (pBluescript II KS cut with EcoR1) was added ([…]). For endogenous ATM kinase reactions, endogenous ATM was immunoprecipitated from GM0536 lymphhoblasts with ATM monoclonal antibody (D16.11) in M buffer (PBS, 10% glycerol, 0.2% Tween 20, 0.3% NP-40, 1 mM NaF, 1 mM Na3VO4, 1 mM PMSF, 1x protease inhibitor mixture]. After washing with M buffer and kinase buffer, in vitro kinase reactions were carried out according to procedures described above. The DNA-PK in vitro kinase reaction was performed as previously described (Gottlieb and Jackson, 1993), using 20 ng each of DNA-PKcs or DNA-PK (20 ng DNA-PKcs premixed with 20 ng Ku 70/80).

ATR = biological target: T2, ATR (Homo sapiens, UniProt Q13535); test: In vitro kinase assay, ATR with GST-peptide / GST-fusion substrates; details: for Relative Phosphorylation (%) ATR: GST-peptide substrate, relative to the p53ser15 site; for phosphorylation by ATR in vitro (in words): larger GST-fusion fragments or full-length proteins as substrates
T2 construct: made in house; host or cells: 293T cells, transient transfection with pBJF-FRPwt, anti-FLAG M2 immunoprecipitate
Protocol: as §1, §2
Transfection and Kinase Activity Assays. 293T cells were transiently transfected with 10 μg of either pcDNA-FLAG-ATMwt, pcDNA-FLAG-ATMkd, pBJF-FRPwt or pBJF-FRPkd (Cliby et al., EMBO J., 17:159, 1998) using calcium phosphate and harvested two days later. Cells were lysed through sonication in TGN buffer [50 mM Tris (pH 7.5), 50 mM glycerophosphate, 150 mM NaCl, 10% glycerol, 1% Tween 20, 1 mM NaF, 1 mM NaVO4, 1 mM PMSF, […] Pepstatin A, 5 μg/ml leupeptin, 10 μg/ml Aprotinin and 1 mM DTT] as described (Brunn et al., Science, 277:99-101,1997). After centrifugation at 13,000 ×g, 2 mg of extract were incubated with mouse IgG and protein A/G sepharose beads (Calbiochem). FLAG-tagged proteins were then immunoprecipitated with anti-FLAG M2 monoclonal antibody (Eastman Kodak Company) and protein A/G sepharose beads. Immunoprecipitates were washed twice with TGN buffer, once with 100 mM Tris (pH 7.5) plus 0.5 M LiCl, and twice with kinase buffer [10 mM Hepes (pH 7.5), 50 mM glycerophosphate, 50 mM NaCl, 10 mM MgCl2, 10 mM MnCl2, 5 μM ATP, and 1 mM DTT]. Kinase reactions were initiated by resuspending washed beads in 30 μl of kinase buffer containing 10 μCi [γ-^32P]ATP and 1 μg GSTp531-101 and incubated for 30 minutes at 30° C. Proteins were electrophoretically separated by SDS-polyacrylamide gel electrophoresis, transferred to nitrocellulose, and analyzed on a PhosphorImager. FLAG-tagged proteins and GSTp531-101 were subjected to immunoblotting with either anti-FLAG M2 antibody or monoclonal antibodies directed towards the NH2-terminus of p53 (Ab-2 and Ab-6, Calbiochem) as described (Siliciano et al., Genes Dev., 11:3471, 1997).
Phosphorylation of Ser^15 of p53 by ATM and ATR/FRP1 in vitro. […] Proteins from each reaction were separated by SDS polyacrylamide gel electrophoresis (7% gel), transferred to nitrocellulose, and analyzed either on a PhosphorImager or by immunoblotting. Amounts of FLAG-tagged ATM or ATR in each kinase reaction were measured by immunoblotting with anti-FLAG M2 (top panel) and amount of [γ^32P]phosphate incorporated into ATM or ATR during the reaction (lower panel). […] An upper immunoreactive band represents phosphorylated GSTp53 fusion protein. The same exposures were used for ATM, ATR/FRP1 and corresponding substrate proteins.
as §3
In vitro kinase assays and immunoprecipitation. […] Cleared supernatants were immunoprecipitated with anti-Flag M2 antibody and protein A/G agarose, the beads were washed with TGN buffer followed by TGN buffer plus 0.5 M LiCl, and two washes with kinase buffer [20 mM HEPES (pH 7.5), 50 mM NaCl, 10 mM MgCl2, 1 mM dithiothreitol (DTT) and 10 mM MnCl2]. […] ATP and […] of GST-fusion substrate (GST-p53:1-101), in varying concentration of Mn^2+. […]

T2 sequence (Q13535 whole entry, the tested form may be a part): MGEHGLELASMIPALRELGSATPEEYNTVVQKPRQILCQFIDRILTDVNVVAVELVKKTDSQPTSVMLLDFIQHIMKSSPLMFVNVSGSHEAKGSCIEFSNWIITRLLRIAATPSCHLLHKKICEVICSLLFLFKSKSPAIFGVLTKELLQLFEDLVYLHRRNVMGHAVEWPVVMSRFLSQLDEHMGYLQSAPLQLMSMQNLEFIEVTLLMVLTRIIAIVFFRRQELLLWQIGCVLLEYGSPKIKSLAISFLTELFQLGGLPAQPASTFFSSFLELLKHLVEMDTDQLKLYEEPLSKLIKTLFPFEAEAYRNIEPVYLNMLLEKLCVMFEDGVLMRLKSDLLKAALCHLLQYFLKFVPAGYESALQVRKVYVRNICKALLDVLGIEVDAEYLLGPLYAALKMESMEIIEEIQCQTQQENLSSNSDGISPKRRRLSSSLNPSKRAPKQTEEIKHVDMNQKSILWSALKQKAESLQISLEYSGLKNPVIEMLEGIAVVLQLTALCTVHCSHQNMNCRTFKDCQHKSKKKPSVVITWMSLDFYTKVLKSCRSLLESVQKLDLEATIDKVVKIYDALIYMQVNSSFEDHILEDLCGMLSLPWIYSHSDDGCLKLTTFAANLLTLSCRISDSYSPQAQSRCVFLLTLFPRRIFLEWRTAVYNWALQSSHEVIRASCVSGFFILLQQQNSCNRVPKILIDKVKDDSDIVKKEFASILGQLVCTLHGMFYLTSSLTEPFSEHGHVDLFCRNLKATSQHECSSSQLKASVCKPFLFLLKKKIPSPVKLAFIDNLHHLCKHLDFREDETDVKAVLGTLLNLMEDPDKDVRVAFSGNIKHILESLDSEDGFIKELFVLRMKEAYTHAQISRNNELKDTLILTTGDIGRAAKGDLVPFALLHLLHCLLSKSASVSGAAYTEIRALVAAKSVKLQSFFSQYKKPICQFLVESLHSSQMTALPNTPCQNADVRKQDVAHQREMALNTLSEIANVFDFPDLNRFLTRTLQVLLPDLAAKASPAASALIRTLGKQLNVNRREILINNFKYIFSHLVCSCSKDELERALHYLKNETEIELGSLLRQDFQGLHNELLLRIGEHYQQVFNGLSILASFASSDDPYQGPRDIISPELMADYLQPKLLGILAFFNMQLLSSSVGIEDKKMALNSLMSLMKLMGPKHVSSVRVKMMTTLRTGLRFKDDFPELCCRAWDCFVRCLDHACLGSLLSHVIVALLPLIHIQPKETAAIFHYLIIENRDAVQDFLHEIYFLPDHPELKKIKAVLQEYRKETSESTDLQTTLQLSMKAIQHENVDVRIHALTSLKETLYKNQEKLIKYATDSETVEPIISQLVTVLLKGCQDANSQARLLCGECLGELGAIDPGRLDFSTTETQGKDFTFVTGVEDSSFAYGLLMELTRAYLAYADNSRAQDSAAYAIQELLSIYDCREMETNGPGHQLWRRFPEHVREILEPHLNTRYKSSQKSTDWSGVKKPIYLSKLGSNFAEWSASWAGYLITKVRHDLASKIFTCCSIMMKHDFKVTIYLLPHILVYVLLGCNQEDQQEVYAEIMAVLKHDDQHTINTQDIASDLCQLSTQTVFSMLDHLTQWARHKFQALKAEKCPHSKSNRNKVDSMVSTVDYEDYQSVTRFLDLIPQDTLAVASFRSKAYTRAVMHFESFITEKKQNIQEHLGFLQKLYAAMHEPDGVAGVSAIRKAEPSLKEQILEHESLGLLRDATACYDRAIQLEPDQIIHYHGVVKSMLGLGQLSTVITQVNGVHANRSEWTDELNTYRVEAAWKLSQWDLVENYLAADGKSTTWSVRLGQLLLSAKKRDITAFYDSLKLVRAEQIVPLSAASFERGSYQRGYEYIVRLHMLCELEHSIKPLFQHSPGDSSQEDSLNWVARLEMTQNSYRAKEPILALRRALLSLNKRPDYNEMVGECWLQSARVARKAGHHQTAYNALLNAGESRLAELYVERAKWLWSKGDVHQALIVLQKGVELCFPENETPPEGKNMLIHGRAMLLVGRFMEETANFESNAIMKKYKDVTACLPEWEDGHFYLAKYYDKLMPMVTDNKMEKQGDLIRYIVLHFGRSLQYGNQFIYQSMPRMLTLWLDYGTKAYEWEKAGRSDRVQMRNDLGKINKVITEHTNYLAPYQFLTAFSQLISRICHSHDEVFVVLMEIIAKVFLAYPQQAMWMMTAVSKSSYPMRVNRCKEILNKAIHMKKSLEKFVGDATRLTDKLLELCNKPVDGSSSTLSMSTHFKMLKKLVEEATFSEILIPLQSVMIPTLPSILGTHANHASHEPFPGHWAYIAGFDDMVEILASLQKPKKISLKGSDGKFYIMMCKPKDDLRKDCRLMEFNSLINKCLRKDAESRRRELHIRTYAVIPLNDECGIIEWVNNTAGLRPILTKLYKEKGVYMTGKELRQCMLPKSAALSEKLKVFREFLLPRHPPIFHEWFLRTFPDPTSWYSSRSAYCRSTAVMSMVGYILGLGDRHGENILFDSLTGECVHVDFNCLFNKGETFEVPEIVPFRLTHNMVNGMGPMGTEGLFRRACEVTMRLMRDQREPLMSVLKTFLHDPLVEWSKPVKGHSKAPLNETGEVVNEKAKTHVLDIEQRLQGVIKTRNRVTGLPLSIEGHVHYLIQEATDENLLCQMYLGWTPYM

Molecule	Relative Phosphorylation (%) ATM (ATM kinase) [%]	Relative Phosphorylation (%) DNA-PK (DNA-PK) [%]	Relative Phosphorylation (%) ATR (ATR) [%]	phosphorylation by ATM in vitro (in words) (ATM kinase)	other results
4EBP1 (Phas I): GST-peptide EPPMEASQSHLRNS (SEQ ID NO:9), S94 (also: GST fusion)	78	10	66		phosphorylation of GST-peptide substrate by ATM (in words) (ATM kinase): excellent in vitro substrate
[Mn+2] [Mn^2+]					effect of addition on activity of endogenous ATM (ATM kinase; endogenous ATM immunoprecipitated under mild conditions): dependent; effect of addition on ATM kinase activity (ATM kinase; transfected flag-tagged ATM, GST-p53 (1-101) substrate): dependent; effect of addition on DNA-PK activity (DNA-PK; purified DNA-PK, GST-p53 (1-101) substrate): not altered; effect of addition on ATR kinase activity (ATR; transfected flag-tagged ATR, GST-p53 (1-101) substrate): dependent
ATM S440: GST-peptide PLLMILSQLLPQQR (SEQ ID NO:24), S440 of ATM (also: GST fusion)	33	7	55		
ATM S2761: GST-peptide YKVVPLSQRSGVLE (SEQ ID NO:25), S2761 of ATM (also: GST fusion)	3	<1	22		
BRCA1 (SQ1): GST-peptide SASLFSSQCSELED (SEQ ID NO:32), S1298 (also: GST fusion)	2	6	38		
BRCA1 (SQ2): GST-peptide DCSGLSSQSDILTT (SEQ ID NO:33), S1387 (also: GST fusion)	42	36	35		
BRCA1 (SQ3): GST-peptide SSEYPISQNPEGLS (SEQ ID NO:34), S1466 (also: GST fusion)	8	12	33		
BRCA2: GST-peptide KVSPYLSQFQQDKQ (SEQ ID NO:29), S2156 (also: GST fusion)	<1	<1	132		phosphorylation of GST-peptide substrate by ATM (in words) (ATM kinase): not by ATM; phosphorylation of GST-peptide substrate by ATR (in words) (ATR; GST-conjugated 14 amino acid peptides): phosphorylated by ATR
CHK1 (SQ1): GST-peptide NVKYSSSQPEPRTG (SEQ ID NO:16), S317 (also: GST fusion)	14	2	58		
CHK1 (SQ2): GST-peptide VQGISFSQPTCPDH (SEQ ID NO:17), S345 (also: GST fusion)	11	20	73		
CUT1: GST-peptide GASPVLSQGVDPRS (SEQ ID NO:36), S1615 (also: GST fusion)	9	5	20		
CtIP: GST-peptide DPGADLSQYKMDVT (SEQ ID NO:44), S664 (also: GST fusion)	12	2	12		
GST: glutathione S-transferase alone, control substrate [reference compound]				did not phosphorylate	
MRE11 (SQ4): GST-peptide SASRGGSQRGRAFK (SEQ ID NO:14), S590 (also: GST fusion)	<1				
MRE11 (SQ5): GST-peptide SSSKIMSQSQVSKG (SEQ ID NO:15), S648 (also: GST fusion)	<1				
full-length WRN protein: purified recombinant full-length WRN protein				not phosphorylated	phosphorylation by ATR in vitro (in words) (ATR): not phosphorylated
wt p53: recombinant glutathione S-transferase-conjugated p53 protein containing the first 101 amino acids of p53				phosphorylated	ATR/FRP-1 activity towards substrate, less than ATM (ATR; identical experimental conditions): at least 20 fold
B1				excellent in vitro substrate	
B2				good substrate	phosphorylation by ATM in vitro (in words) (ATM kinase; listed as full-length 4E-BP 1): can phosphorylate
B3				not phosphorylated	phosphorylation by ATR in vitro (in words) (ATR): not phosphorylated
